{"source": "patent US11708423B2", "about": "“Chimeric engulfment receptor molecules and methods of use” (CERO THERAPEUTICS, INC., priority 2017, dated 2023)", "molecules": {"B1": {"name": "CER123: Tim4 binding and transmembrane domains, TLR2 primary and TRAF6 secondary signaling domains; SEQ ID NO:150 (protein)", "chain": "MSKGLLLLWLVTELWWLYLTPAASEDTIIGFLGQPVTLPCHYLSWSQSRNSMCWGKGSCPNSKCNAELLRTDGTRIISRKSTKYTLLGKVQFGEVSLTISNTNRGDSGVYCCRIEVPGWFNDVKKNVRLELRRATTTKKPTTTTRPTTTPYVTTTTPELLPTTVMTTSVLPTTTPPQTLATTAFSTAVTTCPSTTPGSFSQETTKGSAFTTESETLPASNHSQRSMMTISTDIAVLRPTGSNPGILPSTSQLTTQKTTLTTSESLQKTTKSHQINSRQTILIIACCVGFVLMVLLFLAFLHRFHGLWYMKMMWAWLQAKRKPRKAPSRNICYDAFVSYSERDAYWVENLMVQELENFNPPFKLCLHKRDFIPGKWIIDNIIDSIEKSHKTVFVLSENFVKSEWCKYELDFSHFRLFDENNDAAILILLEPIEKKAIPQRFCKLRKIMNTKTYLEWPMDEAQREGFWVNLRAAIKSMSLLNCENSCGSSQSESDCCVAMASSCSAVTKDDSVGGTASTGNLSSSFMEEIQGYDVEFDPPLESKYECPICLMALREAVQTPCGHRFCKACIIKSIRDAGHKCPVDNEILLENQLFPDNFAKREILSLMVKCPNEGCLHKMELRHLEDHQAHCEFALMDCPQCQRPFQKFHINIHILKDCPRRQVSCDNCAASMAFEDKEIHDQNCPLANVICEYCNTILIREQMPNHYDLDCPTAPIPCTFSTFGCHEKMQRNHLARHLQENTQSHMRMLA", "modifications": "CER123 protein"}}, "type_in_all_cases": "cell-based", "key": {"ALK+A549 cells": {"system": "ALK+A549 cells", "test": "LDH cytotoxicity assay, A549 ALK+ cells, 18 hours co-culture", "conditions": "Crizotinib or Alectinib 0, 2500, 3700 nM; E:T 2:1 or 5:1; 18 hours", "protocol": "An ELM4-ALK translocation was introduced into A549 cells. […] Assays were performed with purified tEGFR^+ (transduction marker), CER-expressing T cells 7 days after activation using CD3 & CD28 microbeads at effector: target cell ratios of 2:1 or 5:1. Mock T cells were transduced with vector alone and used as control. After 18 hours of co-culture, bulk supernatants were evaluated using a LDH cytoxicity assay indicating cell killing (FIGS. 65A-B)."}, "[1]": {"system": "A549 cells introduced with an ELM4-ALK translocation", "test": "Interferon Gamma secretion, A549 ALK+ co-culture", "conditions": "Crizotinib (3700 nM) or Alectinib (3700 nM), 18 hours, E:T 2:1 and 5:1", "protocol": "After 18 hours of co-culture, bulk supernatants were evaluated for Interferon Gamma secretion (FIGS. 66A-B). Assays were performed using purified, tEGFR^+ (transduction marker), CER-expressing T cells 7 days after activation using CD3 & CD28 microbeads at effector: target ratios of (2:1 & 5:1). Control “Mock” T cells were transduced with vector alone."}, "[2]": {"system": "HCC159 lung adenocarcinoma cells", "test": "LDH-based cytotoxicity, HCC159 cells", "conditions": "Osimeritinib 0, 1, 5 nM; E:T 2:1 or 5:1; 18 hours", "protocol": "HCC159 lung adenocarcinoma cells were co-cultured with CER123- or CER126-expressing CD4+ T cells with increasing concentrations of Osimeritnib (0, 1 nM, 5 nM). After 18 hours of co-culture, bulk supernatants were evaluated using a LDH-based cytotoxicity assay. T cells assays were performed using purified, EGFR^+ (transduction marker), CER modified T cells 7 days after activation using CD3 & CD28 microbeads at effector:target cell ratios of 2:1 or 5:1. Control “Mock” T cells were transduced with vector alone. […] Bulk supernatants were also analyzed after 18 hours of co-culture for Interferon Gamma (IFNγ) secretion (FIG. 50). Control “Mock” T cells were transduced with vector alone."}, "[3]": {"system": "HCC159 lung adenocarcinoma cells", "test": "MTT viability of HCC159 cells co-cultured with CER T cells and Osimeritinib", "protocol": "HCC159 lung adenocarcinoma cells harboring an EGFR mutation were co-cultured with CER123- or CER126-expressing CD4+ T cells with increasing concentrations of Osimeritinib (0.1 nM, 1 nM, or 5 nM). Mock transduced (vector only) T cells were used as control. After 48 hours of co-culture at effector: target cell ratios at 1:1, 2:1 or 5:1 in the presence of drug, T cells were washed away, and the number of viable HCC159 cells was quantified using a calorimetric MTT assay. Cell viability experiments were performed in triplicates and presented as % of control with (FIG. 48A)."}}, "note": "Entries after “also recorded” stand apart in the source; their conditions may differ.", "data": [{"molecule": "B1", "values": [{"measurement": "cell killing of A549 ALK+ cells (LDH)", "setting": "ALK+A549 cells", "result": "dose-dependent inducible cytokine secretion and cell killing responses"}, {"measurement": "Interferon Gamma secretion", "setting": "[1]", "result": "dose-dependent inducible cytokine secretion"}, {"measurement": "cell killing of HCC159 cells (LDH)", "setting": "[2]", "result": "inducible cell killing responses"}, {"measurement": "bright field images of HCC159 co-culture", "setting": "[3]; 1 nM Osimeritinib, vs control T cells", "result": "loss of HCC159 cells"}, {"measurement": "growth/viability of HCC159 cells (MTT)", "setting": "[3]; Osimeritinib 0.1, 1, 5 nM, E:T 1:1, 2:1, 5:1, 48 hours", "result": "dose-dependent target cell killing responses; also recorded: synergistically suppressed"}]}]}
